Results: article PMC5379955

Target: ROD (human) (UniProt P50748)
Assay: AUC

## ROD, P50748 1-2209
  stoichiometry N: 2
